Results on 35 molecules are retold here after patent US20210261648A1 (published 2021).

Changes are numbered by the printed parent chain. In names and notes the source's numbering stands.

By Kd is commonly meant a measure of binding affinity in units of concentration. Read a high Kd as weaker binding.

T1: FcγRIIb extracellular domain with C-terminal His tag (human, UniProt P31994 43-217)
T1 construct: extracellular domain; For crystals it was expressed with kifunensine and trimmed with Endo F1; also called FcgRIIb; FcγRIIb extracellular region
T1 sequence (looked up): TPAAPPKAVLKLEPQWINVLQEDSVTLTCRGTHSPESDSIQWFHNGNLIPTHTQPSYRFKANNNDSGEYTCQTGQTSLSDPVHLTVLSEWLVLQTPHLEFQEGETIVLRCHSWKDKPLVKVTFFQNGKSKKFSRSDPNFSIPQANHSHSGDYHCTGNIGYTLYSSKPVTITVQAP

T2: FcγRIIb (human, UniProt P31994 43-217)
T2 construct: extracellular domain; also called FcgRIIb; CD32B
T2 sequence (looked up): T1 sequence (looked up)

T3: FcγRIIa type R (human, UniProt P12318 34-217)
T3 chain: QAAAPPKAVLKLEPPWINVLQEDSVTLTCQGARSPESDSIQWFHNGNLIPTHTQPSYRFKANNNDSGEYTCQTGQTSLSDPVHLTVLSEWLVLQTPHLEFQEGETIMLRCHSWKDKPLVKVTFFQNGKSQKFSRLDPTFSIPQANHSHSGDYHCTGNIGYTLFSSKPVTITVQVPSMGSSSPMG

T4: FcγRIIa type H (human, UniProt P12318 34-217)
T4 construct: extracellular domain; also called FcγRIIaH; FcgRIIaH
T4 sequence (looked up): T3 chain with R134H

B1: IL6R-BP456/IL6R-L (antibody, human IgG1, kappa, name in EU numbering)
heavy: QVQLQESGPGLVKPSETLSLTCAVSGHSISHDHAWSWVRQPPGEGLEWIGFISYSGITNYNPSLQGRVTISRDNSKNTLYLQMNSLRAEDTAVYYCARSLARTTAMDYWGEGTLVTVSSASTKGPSVFPLAPSSKSTSGGTAALGCLVKDYFPEPVTVSWNSGALTSGVHTFPAVLQSSGLYSLSSVVTVPSSSLGTQTYICNVNHKPSNTKVDKKVEPKSCDKTHTCPPCPAPDLLGDDSVFLFPPKPKDTLMISRTPEVTCVVVDVAEEDGEVKFNWYVDGVEVHNAKTKPREEQYNSTYRVVSVLTVLHQDWLNGKEYKCKVSNKALPRPIEKTISKAKGQPREPQVYTLPPSRDELTKNQVSLTCLVKGFYPSDIAVEWESNGQPENNYKTTPMVLDSDGSFFLYSKLTVDKSRWQQGNVFSCSVMHEALHNHYTQESLSLSP
light: not shown
B2: IL6R-AP002/IL6R-BP256/IL6R-L (antibody, human IgG1, kappa)
heavy 1: B1 heavy with A269S, E270D, D358K, M398P, H437R, E441K
heavy 2: B1 heavy with S241D, A269S, E270D, M398P
light: not shown
notes: Heterodimer: S239D in one chain only
B3: IL6R-BP466/IL6R-L (antibody, human IgG1, kappa)
heavy: B1 heavy with A269S, E270D, Y298D, E335R, M398P
light: not shown
B4: IL6R-BP541/IL6R-L (antibody, human IgG1, kappa)
heavy: B1 heavy with A269S, E270D, K276Q, Y298D, M398P
light: not shown
B5: IL6R-BP567/IL6R-L (antibody, human IgG1, kappa)
heavy: B1 heavy with D239G, V266I, Y298D, R332A, M398P
light: not shown
B6: IL6R-AP002/IL6R-BP257/IL6R-L (antibody, human IgG1, kappa)
heavy 1: B1 heavy with A269S, E270D, D358K, M398P, H437R, E441K
heavy 2: B1 heavy with S241E, A269S, E270D, M398P
light: not shown
notes: Heterodimer: S239E in one chain only
B7: variant resulting from adding V266M to IL6R-BP267/IL6R-L (antibody, human IgG1, kappa)
heavy: B1 heavy with V268M, A269S, R332A, M398P
light: not shown
B8: IL6R-AP009/IL6R-BP260/IL6R-L (antibody, human IgG1, kappa)
heavy 1: B1 heavy with A269S, E270D, Y298D, D358K, M398P, H437R, E441K
heavy 2: B1 heavy with S241E, A269S, E270D, Y298D, M398P
light: not shown
notes: as for B6
B9: IL6R-BP458/IL6R-L (antibody, human IgG1, kappa, name in EU numbering)
heavy: B1 heavy with M398Q
light: not shown
B10: variant resulting from adding S267G to IL6R-BP267/IL6R-L (antibody, human IgG1, kappa)
heavy: B1 heavy with A269G, R332A, M398P
light: not shown
B11: variant resulting from adding V264I to IL6R-BP267/IL6R-L (antibody, human IgG1, kappa)
heavy: B1 heavy with V266I, A269S, R332A, M398P
light: not shown
B12: variant resulting from adding S267A to IL6R-BP267/IL6R-L (antibody, human IgG1, kappa)
heavy: B1 heavy with R332A, M398P
light: not shown
B13: IL6R-BP470/IL6R-L (antibody, human IgG1, kappa)
heavy: B1 heavy with A269S, E270D, Y298D, E335T, M398P
light: not shown
B14: IL6R-AP009/IL6R-BP259/IL6R-L (antibody, human IgG1, kappa)
heavy 1: B1 heavy with A269S, E270D, Y298D, D358K, M398P, H437R, E441K
heavy 2: B1 heavy with S241D, A269S, E270D, Y298D, M398P
light: not shown
notes: as for B2
B15: variant resulting from adding E269D to IL6R-BP267/IL6R-L (antibody, human IgG1, kappa)
heavy: B1 heavy with A269S, E271D, R332A, M398P
light: not shown
B16: variant resulting from adding V266F to IL6R-BP267/IL6R-L (antibody, human IgG1, kappa)
heavy: B1 heavy with V268F, A269S, R332A, M398P
light: not shown
B17: IL6R-BP493/IL6R-L (antibody, human IgG1, kappa)
heavy: B1 heavy with D235E, D239G, V266I, Y298D, R332A, M398P
light: not shown
B18: IL6R-BP464/IL6R-L (antibody, human IgG1, kappa, name in EU numbering)
heavy: B1 heavy with M398Y
light: not shown
B19: IL6R-BP559/IL6R-L (antibody, human IgG1, kappa)
heavy: B1 heavy with D235E, D239G, V266I, E274D, Y298D, R332A, M398P
light: not shown
B20: IL6R-BP545/IL6R-L (antibody, human IgG1, kappa)
heavy: B1 heavy with A269S, E270D, Y298D, D358E, M398P
light: not shown
B21: IL6R-BP500/IL6R-L (antibody, human IgG1, kappa)
heavy: B1 heavy with D235E, V266I, Y298D, R332A, M398P
light: not shown
B22: variant resulting from adding S267E to IL6R-BP267/IL6R-L (antibody, human IgG1, kappa)
heavy: B1 heavy with A269E, R332A, M398P
light: not shown
B23: IL6R-BP544/IL6R-L (antibody, human IgG1, kappa)
heavy: B1 heavy with A269S, E270D, Y298D, R357Q, M398P
light: not shown
B24: IL6R-BP546/IL6R-L (antibody, human IgG1, kappa)
heavy: B1 heavy with A269S, E270D, Y298D, L360M, M398P
light: not shown
B25: IL6R-BP492/IL6R-L (antibody, human IgG1, kappa)
heavy: B1 heavy with D235E, D239G, V266I, R332A, M398P
light: not shown
B26: IL6R-BP465/IL6R-L (antibody, human IgG1, kappa)
heavy: B1 heavy with A269S, E270D, Y298D, E335K, M398P
light: not shown
B27: IL6R-BP459/IL6R-L (antibody, human IgG1, kappa, name in EU numbering)
heavy: B1 heavy with M398R
light: not shown
B28: IL6R-BP489/IL6R-L (antibody, human IgG1, kappa)
heavy: B1 heavy with V266I, Y298D
light: not shown
notes: Alterations in EU numbering, introduced into IL6R-B3
B29: IL6R-BP496/IL6R-L (antibody, human IgG1, kappa)
heavy: B1 heavy with V266I, Y298D, R332A, M398P
light: not shown
notes: as for B28
B30: IL6R-BP487/IL6R-L (antibody, human IgG1, kappa)
heavy: B1 heavy with V266I
light: not shown
notes: as for B28
B31: IL6R-BP491/IL6R-L (antibody, human IgG1, kappa)
heavy: B1 heavy with D235E, V266I, Y298D, M398P
light: not shown
notes: as for B28
B32: IL6R-BP488/IL6R-L (antibody, human IgG1, kappa)
heavy: B1 heavy with V266I, Y298D, M398P
light: not shown
notes: as for B28
B33: IL6R-BP554/IL6R-L (antibody, human IgG1, kappa)
heavy: B1 heavy with D235E, V266I, E274D, M398P
light: not shown
notes: as for B28
B34: IL6R-BP558/IL6R-L (antibody, human IgG1, kappa)
heavy: B1 heavy with D235E, V266I, A269G, E274D, M398P
light: not shown
notes: as for B28
B35: IL6R-BP438/IL6R-L (antibody, human IgG1, kappa)
heavy: B1 heavy with I334T, M398P
light: not shown
notes: as for B28

T5 sequence (P12314 16-292): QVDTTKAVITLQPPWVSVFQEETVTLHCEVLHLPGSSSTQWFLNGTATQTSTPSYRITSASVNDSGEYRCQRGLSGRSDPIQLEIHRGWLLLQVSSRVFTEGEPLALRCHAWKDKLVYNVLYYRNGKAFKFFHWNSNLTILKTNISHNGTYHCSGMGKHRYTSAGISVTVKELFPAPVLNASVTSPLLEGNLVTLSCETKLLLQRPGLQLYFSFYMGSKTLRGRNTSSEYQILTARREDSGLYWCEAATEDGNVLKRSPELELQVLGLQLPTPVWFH

One experiment addresses T1, FcγRIIb extracellular domain with …. As to the kind of experiment: SPR (Biacore). (In general: In SPR one partner is held on a chip, and binding of the other changes the refractive index at the surface.)
With B1, the binding result is on record as “binds”. As to B2, the binding result is “binds”. The same measure, in the same setting: the value for B3 was “binds”; that for B4 was “binds”. Consider B5, for which the “binding relative to IL6R-B3/IL6R-L” value is not below 100 times. As to B6, the binding result is listed as “binds”. On the same count and under the same terms, the result for B7 reads “binds”; that for B8, “binds”.

B9: the binding result is “binds”.

Consider B10, for which the binding result is listed as “binds”. On the same count and under the same terms, the result for B11 reads “binds”; that for B12, “binds”.

Regarding B13, the binding result is reported as “binds”. Same read-out and setting: the result for B14 reads “binds”; that for B15, “binds”. B16: the binding result was “binds”.

On to B17, for which the “binding relative to IL6R-B3/IL6R-L” value was not below 100 times. As for B18, the binding result is “binds”.

With B19, the “binding relative to IL6R-B3/IL6R-L” value was not below 100 times. With B20, the binding result is on record as “binds”.

Turning to B21, the “binding relative to IL6R-B3/IL6R-L” value was not below 100 times. In the case of B22, the binding result is on record as “binds”. On to B23, for which the binding result is on record as “binds”.

As to B24, the binding result is given as “binds”. For the molecule B25, the “binding relative to IL6R-B3/IL6R-L” value is not below 100 times. Take B26: the binding result is “binds”. Still for that read-out and setting: the value for B27 was “binds”.

For a further experiment, the target named is T2, FcγRIIb. As to the kind of experiment: SPR (Biacore); parent = IL6R-B3/IL6R-L.
B28: the “KD(IIb) of the parent polypeptide/KD(IIb) of the altered polypeptide” value (“KD(IIb)” below) worked out at 3100 fold. Take B29: the “KD(IIb)” value is 168 fold. For the molecule B30, the “KD(IIb)” value worked out at 2700 fold. Same read-out and setting: the value for B31 was 1020 fold; that for B32 was 1680 fold.

The target in a further experiment is T3, FcγRIIa type R. The experiment can be described thus: SPR (Biacore); parent = IL6R-B3/IL6R-L.
Regarding B28, the “KD(IIaR) of the parent polypeptide/KD(IIaR) of the altered polypeptide” value (“KD(IIaR)” for short) was determined as 25.7 fold. On the same count and under the same terms, the value for B29 was 2.3 fold.

Take B30: the “KD(IIaR)” value was 28.3 fold.

B31: the “KD(IIaR)” value came out at 9.3 fold. On the same count and under the same terms, the value for B32 was 14.8 fold.

The next experiment concerns the target T5, FcγRIa (human, UniProt P12314 16-292).
T5 construct: Whole entry named; also called FcgRIa; CD64A
The experiment can be described thus: SPR (Biacore), captured antibody, soluble FcγR.
B28 registered a Kd of 1.3 nM. In turn, B29 displayed an equilibrium dissociation constant (Kd) of 1.2 nM. Regarding B30, the Kd came to 1.2 nM. Molecule B31 yielded a dissociation constant (Kd) of 5.3 nM.

With B32, binding was characterised by a dissociation constant (Kd) of 2.2 nM. Compared with the last molecule, the Kd is about 2.4-fold lower. Molecule B33 showed a dissociation constant (Kd) of 8 nM.

In the next experiment the target is T4, FcγRIIa type H. The experiment can be described thus: SPR (Biacore), captured antibody, soluble FcγR.
Turning to B28, binding was characterised by a dissociation constant (Kd) of 870 nM. Still for that read-out and setting: the value for B29 was 3700 nM; that for B34 was 4900 nM; that for B35 was 1600 nM. Still for that read-out and setting: the value for B30 was 840 nM; that for B31 was 2200 nM; that for B32 was 1600 nM. Still for that read-out and setting: the result for B33 reads 2300 nM.

The target in the next experiment is T2, FcγRIIb. The experiment can be described thus: SPR (Biacore), captured antibody, soluble FcγR.
In turn, B28 yielded a Kd of 1 nM. With B29, binding was characterised by a dissociation constant (Kd) of 18 nM. Same read-out and setting: the result for B34 reads 9 nM. On the same count and under the same terms, the value for B30 was 1.2 nM; that for B31 was 3 nM; that for B32 was 1.9 nM.

Another experiment addresses T3, FcγRIIa type R. The experiment can be described thus: SPR (Biacore), captured antibody, soluble FcγR.
B28 yielded a dissociation constant Kd of 43 nM. On the same count and under the same terms, the value for B29 was 470 nM. Still for that read-out and setting: the value for B34 was 330 nM. Still for that read-out and setting: the result for B35 reads 180 nM; that for B30, 39 nM. The molecule B31 yielded a Kd of 120 nM. The same measure, in the same setting: the result for B32 reads 74 nM; that for B33, 150 nM.
